Source: US20130287781A1

Experiments:
[1] = target: Rat NOGO (A56) plus GST tag (rat); test: direct ELISA on GST-NOGO-A56 from rat, Abs490
[2] = target: Marmoset NOGO (A56) plus GST tag (marmoset); test: direct ELISA on GST-NOGO-A56 from marmoset, Abs490
[3] = target: Cynomolgus monkey NOGO (A56) plus GST tag (cynomolgus monkey); test: direct ELISA on GST-NOGO-A56 from cynomolgus, Abs490
[4] = target: Squirrel monkey NOGO (A56) plus GST tag (squirrel monkey); test: direct ELISA on GST-NOGO-A56 from squirrel monkey, Abs490
Squirrel monkey NOGO (A56) plus GST tag (squirrel monkey), sequence (chain, as listed by the source limits assumed): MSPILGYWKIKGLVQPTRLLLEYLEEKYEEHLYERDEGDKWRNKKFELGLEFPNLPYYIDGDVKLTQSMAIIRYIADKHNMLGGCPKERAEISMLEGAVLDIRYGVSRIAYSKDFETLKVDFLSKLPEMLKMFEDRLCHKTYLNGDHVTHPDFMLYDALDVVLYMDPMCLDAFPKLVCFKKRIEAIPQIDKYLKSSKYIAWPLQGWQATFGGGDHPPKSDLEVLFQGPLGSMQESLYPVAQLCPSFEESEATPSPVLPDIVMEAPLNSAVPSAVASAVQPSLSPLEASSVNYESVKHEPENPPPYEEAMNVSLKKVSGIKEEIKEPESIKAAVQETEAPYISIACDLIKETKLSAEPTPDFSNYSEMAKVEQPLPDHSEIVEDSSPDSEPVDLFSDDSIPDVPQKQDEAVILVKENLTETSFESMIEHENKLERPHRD

[5] = target: GST-human NOGO-A56 (human); test: SPR (Biacore T100), human Nogo-A amine-coupled to CM5, antibody 0.125-8 nM flowed over; mean
GST-human NOGO-A56 (human), sequence (chain, as listed by the source limits assumed): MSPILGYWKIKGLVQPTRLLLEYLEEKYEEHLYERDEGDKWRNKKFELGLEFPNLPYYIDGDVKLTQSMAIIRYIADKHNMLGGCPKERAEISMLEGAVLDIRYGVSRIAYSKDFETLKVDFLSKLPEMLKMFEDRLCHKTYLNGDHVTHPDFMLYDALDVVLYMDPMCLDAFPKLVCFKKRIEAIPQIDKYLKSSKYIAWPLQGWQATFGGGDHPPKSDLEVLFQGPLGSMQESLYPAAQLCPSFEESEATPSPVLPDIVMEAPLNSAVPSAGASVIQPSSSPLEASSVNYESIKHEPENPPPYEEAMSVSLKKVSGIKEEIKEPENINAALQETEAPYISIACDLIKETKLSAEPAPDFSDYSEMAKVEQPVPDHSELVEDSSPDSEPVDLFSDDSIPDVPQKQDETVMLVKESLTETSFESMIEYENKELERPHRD

[6] = target: Cynomolgus monkey NOGO (A56) plus GST tag (cynomolgus monkey); test: SPR (Biacore T100), Nogo-A orthologue amine-coupled to CM5, antibody 0.125-8 nM flowed over; mean
[7] = target: Marmoset NOGO (A56) plus GST tag (marmoset); test: as above
[8] = target: Rat NOGO (A56) plus GST tag (rat); test: as above
[9] = target: Squirrel monkey NOGO (A56) plus GST tag (squirrel monkey); test: as above
[10] = target: Cynomolgus monkey NOGO (A56) plus GST tag (cynomolgus monkey); test: SPR (Biacore T100), reverse format: antibody captured by Protein A, GST-NOGO-A56 flowed over; mean
[11] = target: GST-human NOGO-A56 (human); test: as above
[12] = target: Marmoset NOGO (A56) plus GST tag (marmoset); test: as above
[13] = target: Rat NOGO (A56) plus GST tag (rat); test: as above
[14] = target: Squirrel monkey NOGO (A56) plus GST tag (squirrel monkey); test: as above

Marmoset NOGO (A56) plus GST tag (marmoset), sequence (chain, as listed by the source limits assumed): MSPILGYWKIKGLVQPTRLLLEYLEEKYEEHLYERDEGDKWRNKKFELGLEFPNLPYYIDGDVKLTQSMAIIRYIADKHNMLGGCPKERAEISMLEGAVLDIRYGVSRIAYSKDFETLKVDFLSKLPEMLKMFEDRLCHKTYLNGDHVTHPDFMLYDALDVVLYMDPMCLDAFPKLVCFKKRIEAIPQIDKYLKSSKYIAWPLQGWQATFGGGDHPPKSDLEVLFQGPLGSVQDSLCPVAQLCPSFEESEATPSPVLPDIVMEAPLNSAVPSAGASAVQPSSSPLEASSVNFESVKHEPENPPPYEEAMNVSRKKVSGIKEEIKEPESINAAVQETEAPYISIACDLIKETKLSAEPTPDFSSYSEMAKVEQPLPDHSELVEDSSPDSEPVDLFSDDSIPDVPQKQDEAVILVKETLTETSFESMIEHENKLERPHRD
Rat NOGO (A56) plus GST tag (rat), sequence (chain, as listed by the source limits assumed): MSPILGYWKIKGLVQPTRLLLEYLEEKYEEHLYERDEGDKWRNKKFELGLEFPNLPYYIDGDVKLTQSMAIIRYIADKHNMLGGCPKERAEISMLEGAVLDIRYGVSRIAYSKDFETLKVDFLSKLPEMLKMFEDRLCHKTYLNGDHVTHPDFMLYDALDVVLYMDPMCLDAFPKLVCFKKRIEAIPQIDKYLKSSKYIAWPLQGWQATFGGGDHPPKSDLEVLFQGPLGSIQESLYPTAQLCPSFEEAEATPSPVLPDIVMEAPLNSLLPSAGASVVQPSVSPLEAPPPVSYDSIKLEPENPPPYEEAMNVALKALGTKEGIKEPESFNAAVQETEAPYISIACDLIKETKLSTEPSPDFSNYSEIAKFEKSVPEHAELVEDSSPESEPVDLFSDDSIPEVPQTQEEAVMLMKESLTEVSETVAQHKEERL
Cynomolgus monkey NOGO (A56) plus GST tag (cynomolgus monkey), sequence (chain, as listed by the source limits assumed): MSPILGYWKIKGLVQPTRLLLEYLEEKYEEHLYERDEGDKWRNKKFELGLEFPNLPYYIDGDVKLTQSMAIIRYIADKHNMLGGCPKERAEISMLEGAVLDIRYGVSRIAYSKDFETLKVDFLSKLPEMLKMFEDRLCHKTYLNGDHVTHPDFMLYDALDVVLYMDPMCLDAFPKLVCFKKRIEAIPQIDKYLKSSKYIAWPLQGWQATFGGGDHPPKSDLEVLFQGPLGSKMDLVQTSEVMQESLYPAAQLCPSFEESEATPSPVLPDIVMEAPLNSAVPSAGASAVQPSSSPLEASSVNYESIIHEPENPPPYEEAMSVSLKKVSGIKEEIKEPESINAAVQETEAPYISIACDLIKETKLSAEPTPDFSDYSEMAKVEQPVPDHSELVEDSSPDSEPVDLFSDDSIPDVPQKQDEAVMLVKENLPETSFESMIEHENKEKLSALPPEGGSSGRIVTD

chimeric 11C7 (antibody) was tested, and the EC50 (read off the curve) [1] was 0.06 µg/mL, the EC50 (read off the curve) [2] was 0.04 µg/mL and the EC50 (read off the curve) [3] was 0.06 µg/mL. For the same substance, the EC50 (read off the curve) [4] was 0.04 µg/mL, the Kd [5] was 0.19 nM and the Kd [6] was 0.23 nM. For the same substance, the Kd [7] was 0.24 nM, the Kd [8] was 0.11 nM and the Kd [9] was 0.26 nM. For the same substance, the Kd [10] was 0.76 nM, the Kd [11] was 0.57 nM and the Kd [12] was 1.33 nM. It also gave a Kd [13] of 0.64 nM and a Kd [14] of 2.69 nM.
